One experiment relates to CD8+ T cells. The experiment is described as follows: In vitro T-cell priming (immunogenicity) with aAPCs loaded with peptide/MHC and anti-CD28, pMHC multimer readout. Particulars: for Wells positive [%]: in vitro immunogenicity, HLA-A*02 restricted peptides, positive wells among evaluable; for donors / wells: in vitro immunogenicity of HLA class I peptides; for donors: percentage of positive donors; for wells: percentage of positive wells. The format is cell-based, human. The text has this:
In order to obtain information regarding the immunogenicity of the TUMAPs of the present invention, the inventors performed investigations using an in vitro T-cell priming assay based on repeated stimulations of CD8+ T cells with artificial antigen presenting cells (aAPCs) loaded with peptide/MHC complexes and anti-CD28 antibody.
In order to perform in vitro stimulations by artificial antigen presenting cells loaded with peptide-MHC complex (pMHC) and anti-CD28 antibody, the inventors first isolated CD8+ T cells from fresh HLA-A*02 leukapheresis products via positive selection using CD8 microbeads (Miltenyi Biotec, Bergisch-Gladbach, Germany) of healthy donors obtained from the University clinics Mannheim, Germany, after informed consent.
PBMCs and isolated CD8+ lymphocytes were incubated in T-cell medium (TCM) until use consisting of RPMI-Glutamax (Invitrogen, Karlsruhe, Germany) supplemented with 10% heat inactivated human AB serum (PAN-Biotech, Aidenbach, Germany), 100 U/ml Penicillin/100 μg/ml Streptomycin (Cambrex, Cologne, Germany), 1 mM sodium pyruvate (CC Pro, Oberdorla, Germany), 20 μg/ml Gentamycin (Cambrex). 2.5 ng/ml IL-7 (PromoCell, Heidelberg, Germany) and 10 U/ml IL-2 (Novartis Pharma, Nürnberg, Germany) were also added to the TCM at this step.
Generation of pMHC/anti-CD28 coated beads, T-cell stimulations and readout was performed in a highly defined in vitro system using four different pMHC molecules per stimulation condition and 8 different pMHC molecules per readout condition.
The purified co-stimulatory mouse IgG2a anti human CD28 Ab 9.3 (Jung et al., 1987) was chemically biotinylated using Sulfo-N-hydroxysuccinimidobiotin as recommended by the manufacturer (Perbio, Bonn, Germany). Beads used were 5.6 μm diameter streptavidin coated polystyrene particles (Bangs Laboratories, Illinois, USA).
pMHC used for positive and negative control stimulations were A*0201/MLA-001 (peptide […] (SEQ ID NO. 664) from modified Melan-A/MART-1) and A*0201/DDX5-001 ([…] from DDX5, SEQ ID NO. 665), respectively.
800.000 beads/200 μl were coated in 96-well plates in the presence of 4×12.5 ng different biotin-pMHC, washed and 600 ng biotin anti-CD28 were added subsequently in a volume of 200 μl. Stimulations were initiated in 96-well plates by co-incubating 1×10^6 CD8+ T cells with 2×10^5 washed coated beads in 200 μl TCM supplemented with 5 ng/ml IL-12 (PromoCell) for 3 days at 37° C. Half of the medium was then exchanged by fresh TCM supplemented with 80 U/ml IL-2 and incubating was continued for 4 days at 37° C. This stimulation cycle was performed for a total of three times. For the pMHC multimer readout using 8 different pMHC molecules per condition, a two-dimensional combinatorial coding approach was used as previously described (Andersen et al., 2012) with minor modifications encompassing coupling to 5 different fluorochromes. Finally, multimeric analyses were performed by staining the cells with Live/dead near IR dye (Invitrogen, Karlsruhe, Germany), CD8-FITC antibody clone SK1 (BD, Heidelberg, Germany) and fluorescent pMHC multimers. For analysis, a BD LSRII SORP cytometer equipped with appropriate lasers and filters was used. Peptide specific cells were calculated as percentage of total CD8+ cells. Evaluation of multimeric analysis was done using the FlowJo software (Tree Star, Oregon, USA). In vitro priming of specific multimer+CD8+ lymphocytes was detected by comparing to negative control stimulations.
Exemplary flow cytometry results after TUMAP-specific multimer staining for two peptides of the invention are shown in FIG. 3 together with corresponding negative controls.

Another experiment deals with HLA-A*02:01 (Homo sapiens, UniProt P04439, D140Y/D185E/D98H/E176V/E277Q/G131W/G231S/I119V/I121R/I166T/I218V/L300P/L318F/N151K/N90K/P208A/P217A/Q86G/Q94H/R138H/R169H/T345S). The experiment is described as follows: MHC binding assay (UV-ligand exchange, β2m ELISA, peptide exchange yield). The conditions noted are these: MHC class I binding score; binding to HLA-A*02:01 ranged by peptide exchange yield (UV-ligand exchange, β2m ELISA). An outline of the steps:
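Peptide–HLA-A*02:01 complexes were formed by UV-mediated exchange of a UV-cleavable ligand for the test peptide. Exchange yield was measured by capturing complexes on streptavidin, detecting with HRP anti-β2m antibody (1 h, 37°C) and reading TMB absorbance at 450 nm.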

As to “2 (SLLEADPFL; listed as Homo sapiens) [compound 2]”, the “Wells positive [%]” value with CD8+ T cells is on record as “″+″ (<20% = +)”. Moreover, the Peptide exchange result with HLA-A*02:01 is on record as “″+++″ (≧50% = +++)”.

With “3 (SLASKLTTL; listed as Homo sapiens) [compound 3]”, the “Wells positive [%]” value with CD8+ T cells was “″+″ (<20% = +)”. Besides, in the experiment with HLA-A*02:01, the Peptide exchange entry is on record as “″++++″ (≧75% = ++++)”.

“5 (HLTEVYPEL; listed as Homo sapiens) [compound 5]”: the “Wells positive [%]” value in the experiment with CD8+ T cells was “″+++″ (50%-69% = +++)”. The Peptide exchange result in the experiment with HLA-A*02:01 is “″+++″ (≧50% = +++)”.

“7 (SLVGLLLYL; listed as Homo sapiens) [compound 7]”: the “Wells positive [%]” value with CD8+ T cells was “″++″ (20%-49% = ++)”. Moreover, in the experiment with HLA-A*02:01, the Peptide exchange entry is recorded as “″++++″ (≧75% = ++++)”.

For the substance “8 (FTLGNVVGMYL; listed as Homo sapiens) [compound 8]”, in the experiment with CD8+ T cells, the “Wells positive [%]” value is given as “″+″ (<20% = +)”. For the same substance, the Peptide exchange result with HLA-A*02:01 was “″++++″ (≧75% = ++++)”.

In the case of “11 (KIFEMLEGV; listed as Homo sapiens) [compound 11]”, the “Wells positive [%]” value in the experiment on CD8+ T cells is recorded as “″+″ (<20% = +)”. Besides, the Peptide exchange entry in the experiment with HLA-A*02:01 is “″+++″ (≧50% = +++)”.

Regarding “17 (GLLPGDRLVSV; listed as Homo sapiens) [compound 17]”, the “Wells positive [%]” value with CD8+ T cells is recorded as “″++″ (20%-49% = ++)”. In addition, the Peptide exchange result in the experiment with HLA-A*02:01 is listed as “″+++″ (≧50% = +++)”.

For the substance “19 (FMVDNEAIYDI; listed as Homo sapiens) [compound 19]”, the “Wells positive [%]” value in the experiment with CD8+ T cells is listed as “″++″ (20%-49% = ++)”. Moreover, in the experiment with HLA-A*02:01, the Peptide exchange entry was “″++++″ (≧75% = ++++)”.

Take “36 (YVLEDLEVTV; listed as Homo sapiens) [compound 36]”: the “Wells positive [%]” value in the experiment with CD8+ T cells is “″+″ (<20% = +)”. The Peptide exchange result with HLA-A*02:01 is “″++″ (≧20% = ++)”.

For “38 (FLLEDDIHVS; listed as Homo sapiens) [compound 38]”, in the experiment with CD8+ T cells, the “Wells positive [%]” value is “″+″ (<20% = +)”. Moreover, in the experiment with HLA-A*02:01, the Peptide exchange result is given as “″+++″ (≧50% = +++)”.

Consider “593 (GLPRFGIEMV; listed as Homo sapiens) [compound 593]”, for which the Peptide exchange result with HLA-A*02:01 was “″+++″ (≧50% = +++)”.

As for “594 (IMLKGDNITL; listed as Homo sapiens) [compound 594]”, the Peptide exchange result with HLA-A*02:01 is “″+++″ (≧50% = +++)”.

“595 (VLLSIYPRV; listed as Homo sapiens) [compound 595]”: in the experiment with HLA-A*02:01, the Peptide exchange entry is recorded as “″+++″ (≧50% = +++)”.

“596 (ALLDQTKTLAESAL; listed as Homo sapiens) [compound 596]”: the Peptide exchange result in the experiment with HLA-A*02:01 was “″+++″ (≧50% = +++)”.

For “597 (KLLEGQVIQL; listed as Homo sapiens) [compound 597]”, in the experiment with HLA-A*02:01, the Peptide exchange result is “″+++″ (≧50% = +++)”.

Take “598 (FLFPHSVLV; listed as Homo sapiens) [compound 598]”: the Peptide exchange result in the experiment with HLA-A*02:01 was “″+++″ (≧50% = +++)”.

As to “599 (YLLNDASLISV; listed as Homo sapiens) [compound 599]”, in the experiment with HLA-A*02:01, the Peptide exchange result is on record as “″+++″ (≧50% = +++)”.

For the substance “600 (ALAAPDIVPAL; listed as Homo sapiens) [compound 600]”, the Peptide exchange result in the experiment with HLA-A*02:01 is given as “″+++″ (≧50% = +++)”.

Consider “601 (SAFPFPVTV; listed as Homo sapiens) [compound 601]”, for which, in the experiment with HLA-A*02:01, the Peptide exchange entry was “″+++″ (≧50% = +++)”.

As for “602 (YLLEQIKLIEV; listed as Homo sapiens) [compound 602]”, the Peptide exchange result with HLA-A*02:01 was “″++++″ (≧75% = ++++)”.

Regarding “604 (SILDRDDIFV; listed as Homo sapiens) [compound 604]”, in the experiment with HLA-A*02:01, the Peptide exchange result is recorded as “″+++″ (≧50% = +++)”.

As for “605 (KLYEAVPQL; listed as Homo sapiens) [compound 605]”, the Peptide exchange entry with HLA-A*02:01 was “″+++″ (≧50% = +++)”.

Consider “606 (ALWETEVYI; listed as Homo sapiens) [compound 606]”, for which the Peptide exchange entry in the experiment with HLA-A*02:01 was “″+++″ (≧50% = +++)”.

“607 (RLYSGISGLEL; listed as Homo sapiens) [compound 607]”: the Peptide exchange result with HLA-A*02:01 is recorded as “″+++″ (≧50% = +++)”.

Turning to “608 (SLLSVSHAL; listed as Homo sapiens) [compound 608]”, in the experiment with HLA-A*02:01, the Peptide exchange result is “″+++″ (≧50% = +++)”.

As to “609 (ALWKQLLEL; listed as Homo sapiens) [compound 609]”, in the experiment with HLA-A*02:01, the Peptide exchange result is “″+++″ (≧50% = +++)”.

As for “610 (LLAPTPYIIGV; listed as Homo sapiens) [compound 610]”, the Peptide exchange result in the experiment with HLA-A*02:01 is “″+++″ (≧50% = +++)”.

On to “611 (YLLDDGTLVV; listed as Homo sapiens) [compound 611]”, for which, in the experiment with HLA-A*02:01, the Peptide exchange result is on record as “″++++″ (≧75% = ++++)”.

Turning to “612 (YLYNEGLSV; listed as Homo sapiens) [compound 612]”, the Peptide exchange entry with HLA-A*02:01 is reported as “″+++″ (≧50% = +++)”.

Turning to “613 (RLLPPGAVVAV; listed as Homo sapiens) [compound 613]”, the Peptide exchange entry in the experiment with HLA-A*02:01 is reported as “″+++″ (≧50% = +++)”.

Turning to “614 (LLLPDQPPYHL; listed as Homo sapiens) [compound 614]”, in the experiment with HLA-A*02:01, the Peptide exchange entry is given as “″+++″ (≧50% = +++)”.

Take “615 (VLPPDTDPA; listed as Homo sapiens) [compound 615]”: the Peptide exchange entry in the experiment with HLA-A*02:01 is “″++″ (≧20% = ++)”.

With “616 (VLIDEVESL; listed as Homo sapiens) [compound 616]”, in the experiment with HLA-A*02:01, the Peptide exchange result is “″+++″ (≧50% = +++)”.

As for “617 (ALMYESEKVGV; listed as Homo sapiens) [compound 617]”, the Peptide exchange entry with HLA-A*02:01 is given as “″+++″ (≧50% = +++)”.

Regarding “618 (VLFDSESIGIYV; listed as Homo sapiens) [compound 618]”, the Peptide exchange result with HLA-A*02:01 is given as “″+++″ (≧50% = +++)”.

As for “619 (ALQDRVPLA; listed as Homo sapiens) [compound 619]”, the Peptide exchange result with HLA-A*02:01 is listed as “″+++″ (≧50% = +++)”.

Turning to “620 (KLLNKIYEA; listed as Homo sapiens) [compound 620]”, in the experiment with HLA-A*02:01, the Peptide exchange result is “″++++″ (≧75% = ++++)”.

Regarding “621 (VLMDRLPSLL; listed as Homo sapiens) [compound 621]”, the Peptide exchange result in the experiment with HLA-A*02:01 is reported as “″++++″ (≧75% = ++++)”.

For “622 (RLLGEEVVRVLQA; listed as Homo sapiens) [compound 622]”, the Peptide exchange entry in the experiment with HLA-A*02:01 is listed as “″+++″ (≧50% = +++)”.

On to “623 (YLVEDIQHI; listed as Homo sapiens) [compound 623]”, for which the Peptide exchange entry with HLA-A*02:01 is “″+++″ (≧50% = +++)”.

In the case of “635 (SLDSTLHAV; listed as Homo sapiens) [compound 635]”, the Peptide exchange result with HLA-A*02:01 is given as “″+++″ (≧50% = +++)”.

With “648 (LLWGNAIFL; listed as Homo sapiens) [compound 648]”, the donors entry with CD8+ T cells was “+++ (50%-69% = +++)”.

With “652 (TLWYRAPEV; listed as Homo sapiens) [compound 652]”, in the experiment on CD8+ T cells, the donors entry is listed as “++++ (> = 70% = ++++)” and the wells result is on record as “+++ (50%-69% = +++)”.

Consider “659 (ILFPDIIARA; listed as Homo sapiens) [compound 659]”, for which, in the experiment on CD8+ T cells, the donors result is reported as “+++ (50%-69% = +++)” and the wells entry was “+ (<20% = +)”.

For “662 (KIQEILTQV; listed as Homo sapiens) [compound 662]”, in the experiment on CD8+ T cells, the donors entry was “+++ (50%-69% = +++)” and the wells entry is listed as “+ (<20% = +)”.

With “663 (KIQEMQHFL; listed as Homo sapiens) [compound 663]”, in the experiment with CD8+ T cells, the donors result is recorded as “+++ (50%-69% = +++)” and the wells result was “+ (<20% = +)”.

Values taken from patent publication US20170037111A1, “Novel peptides and combination of peptides for use in immunotherapy against ovarian cancer and other cancers” (immatics biotechnologies GmbH, priority 2015, published 2017).
